Assay results taken from IntAct's records for PubMed 23084749.

B1: Protein deacetylase HDAC6 (Homo sapiens), Q9UBN7 (parent)
chain: MTSTGQDSTTTRQRRSRQNPQSPPQDSSVTSKRNIKKGAVPRSIPNLAEVKKKGKMKKLGQAMEEDLIVGLQGMDLNLEAEALAGTGLVLDEQLNEFHCLWDDSFPEGPERLHAIKEQLIQEGLLDRCVSFQARFAEKEELMLVHSLEYIDLMETTQYMNEGELRVLADTYDSVYLHPNSYSCACLASGSVLRLVDAVLGAEIRNGMAIIRPPGHHAQHSLMDGYCMFNHVAVAARYAQQKHRIRRVLIVDWDVHHGQGTQFTFDQDPSVLYFSIHRYEQGRFWPHLKASNWSTTGFGQGQGYTINVPWNQVGMRDADYIAAFLHVLLPVALEFQPQLVLVAAGFDALQGDPKGEMAATPAGFAQLTHLLMGLAGGKLILSLEGGYNLRALAEGVSASLHTLLGDPCPMLESPGAPCRSAQASVSCALEALEPFWEVLVRSTETVERDNMEEDNVEESEEEGPWEPPVLPILTWPVLQSRTGLVYDQNMMNHCNLWDSHHPEVPQRILRIMCRLEELGLAGRCLTLTPRPATEAELLTCHSAEYVGHLRATEKMKTRELHRESSNFDSIYICPSTFACAQLATGAACRLVEAVLSGEVLNGAAVVRPPGHHAEQDAACGFCFFNSVAVAARHAQTISGHALRILIVDWDVHHGNGTQHMFEDDPSVLYVSLHRYDHGTFFPMGDEGASSQIGRAAGTGFTVNVAWNGPRMGDADYLAAWHRLVLPIAYEFNPELVLVSAGFDAARGDPLGGCQVSPEGYAHLTHLLMGLASGRIILILEGGYNLTSISESMAACTRSLLGDPPPLLTLPRPPLSGALASITETIQVHRRYWRSLRVMKVEDREGPSSSKLVTKKAPQPAKPRLAERMTTREKKVLEAGMGKVTSASFGEESTPGQTNSETAVVALTQDQPSEAATGGATLAQTISEAAIGGAMLGQTTSEEAVGGATPDQTTSEETVGGAILDQTTSEDAVGGATLGQTTSEEAVGGATLAQTTSEAAMEGATLDQTTSEEAPGGTELIQTPLASSTDHQTPPTSPVQGTTPQISPSTLIGSLRTLELGSESQGASESQAPGEENLLGEAAGGQDMADSMLMQGSRGLTDQAIFYAVTPLPWCPHLVAVCPIPAAGLDVTQPCGDCGTIQENWVCLSCYQVYCGRYINGHMLQHHGNSGHPLVLSYIDLSAWCYYCQAYVHHQALLDVKNIAHQNKFGEDMPHPH
partner: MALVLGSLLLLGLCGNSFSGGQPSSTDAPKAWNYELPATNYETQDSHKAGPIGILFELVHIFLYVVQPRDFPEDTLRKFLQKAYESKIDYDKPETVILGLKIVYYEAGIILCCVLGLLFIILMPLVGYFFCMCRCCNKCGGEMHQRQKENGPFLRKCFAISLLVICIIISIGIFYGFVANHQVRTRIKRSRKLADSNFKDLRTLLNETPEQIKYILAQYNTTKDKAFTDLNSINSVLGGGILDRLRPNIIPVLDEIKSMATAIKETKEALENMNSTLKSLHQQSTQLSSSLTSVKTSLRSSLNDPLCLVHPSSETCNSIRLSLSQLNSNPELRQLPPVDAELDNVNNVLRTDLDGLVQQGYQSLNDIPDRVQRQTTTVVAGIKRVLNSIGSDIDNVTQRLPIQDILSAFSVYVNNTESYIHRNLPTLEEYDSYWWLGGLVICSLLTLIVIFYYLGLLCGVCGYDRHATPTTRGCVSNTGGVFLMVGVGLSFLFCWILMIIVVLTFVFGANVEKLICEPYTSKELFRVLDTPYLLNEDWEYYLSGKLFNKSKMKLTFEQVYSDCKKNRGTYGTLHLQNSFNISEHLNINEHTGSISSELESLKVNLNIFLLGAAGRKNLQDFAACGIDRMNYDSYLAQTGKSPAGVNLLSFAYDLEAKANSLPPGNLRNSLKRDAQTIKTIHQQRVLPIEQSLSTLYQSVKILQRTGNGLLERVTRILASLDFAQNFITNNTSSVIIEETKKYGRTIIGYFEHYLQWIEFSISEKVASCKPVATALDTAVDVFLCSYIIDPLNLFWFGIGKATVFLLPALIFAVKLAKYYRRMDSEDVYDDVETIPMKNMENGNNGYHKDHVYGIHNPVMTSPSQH

Variants of: B1
Settings: with prom1_human PROM1, O43490

effect of a mutation on the interaction | Variant
disrupting interaction strength | Y570E
with no effect | Y570A

The remaining lines, values behind:

Variant | effect of a mutation on the interaction
S568E | disrupting interaction strength
S568A | with no effect
H216A;H611A | with no effect
